Measured values from US20230212319A1, “NOVEL ANTIGEN BINDING DOMAINS AND SYNTHETIC ANTIGEN RECEPTORS INCORPORATING THE SAME” (University of Southern California, priority 2020, published 2023).

Key:
[1] = system: RAJI-CD19-KO cells; assay: JNG assay, co-culture with RAJI-CD19-KO cells; format: cell-based; conditions: co-culture with Raji-CD19-KO
Method in brief: (§1)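 Read-out is NFAT-driven GFP measured by flow cytometry after ~4–18 h co-culture of SAR-expressing JNG cells with target cells (E:T about 1:2). SARs were introduced by lentiviral spinfection and selected with puromycin or blasticidin when possible; scores (+/- to 5+ ≈ 5–50% GFP+) are relative to parental JNG cells.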

[2] = system: RS;411; assay: JNG assay, co-culture with RS;411 cells; format: cell-based; conditions: co-culture with RS411
Method in brief: as §1

[3] = system: LNCaP cells; assay: JNG assay, co-culture with LNCaP cells; format: cell-based
Method in brief: (§2)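 SAR-JNG (lentiviral spinfection, drug-selected) + target cells, E:T ≈1:2, ≈4–18 h; FACS for GFP; positivity = %GFP+ over parental JNG; grades +/- to 5+ ≈ 5–50% GFP+.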

[4] = system: Nalm6 cells; assay: JNG assay, co-culture with Nalm6 cells; format: cell-based; conditions: co-culture with Nalm6
Method in brief: as §2

[5] = system: L363 cells; assay: JNG assay, co-culture with L363 cells; format: cell-based; conditions: for NFAT-GFP ASSAY: L363: co-culture with L363
Method in brief: as §1

[6] = system: SKOV3-Luc cells; assay: SKOV3 xenograft in NSG mice; conditions: 1 × 10^6 SKOV3-Luc s.c., a week later 3 × 10^6 SAR-T i.v.
[7] = system: RAJI cells; assay: JNG assay, co-culture with RAJI cells; format: cell-based; conditions: JNG cells expressing construct, co-culture with Raji
Method in brief: as §1

B1: 22178 (protein)
chain: MALPVTALLLPLALLLHAARPEVQLVESGGGVVQPGRSLRLSCAASGFSFSGYGMHWVRQAPGKGLEWVAYISYDGSNKYYADSVKGRFTISRDNSKNTLYLQMNSLRAEDTAVYYCAKDPAWGLRLGESSSYDFDIWGQGTMVTVSSGTGGGGSGGGGSGGGGSEFDIQMTQSPSSLSASVGDRVTITCKASDHINNWLAWYQQKPGQAPKLLIYGATTLETGVPSRFSGSGSGTDYTLTISSLQPEDFATYYCQQSWNTPWTFGQGTKLEIKRLEDLKNVFPPEVAVFEPSKAEIAHTQKATLVCLATGFYPDHVELSWWVNGKEVHSGVCTDPQPLKEQPALNDSRYCLSSRLRVSATFWQNPRNHFRCQVQFYGLSENDEWTQDRAKPVTQIVSAEAWGRADCGITSASYHQGVLSATILYEILLGKATLYAVLVSALVLMAMVKRKDSRGRAKRSGSGATNFSLLKQAGDVEENPGPTSATMDWIWRILFLVGAATGAHSGPQVQLQESGGGLAQAGGSLRLSCAASGRTFSMGWFRQAPGKEREFVAAITYSGGSPYYASSVRGRFTISRDNAKNTVYLQMNSLKPEDTAVYYCAANPTYGSDWNAENWGQGTQVTVSSGSGGGGSGGGGSGGGGSFEQVQLQQPGAELVKPGASVKMSCKASGYAFSSYWINWMKQKPGQGLEWIGQIYPGDGDTNYNGKFKGRATLTADTSSSTAYMQLSSLTSEDSAVYFCARSITTVVGCAMDYWGQGTSVTVSSTRIQNPDPAVYQLRDSKSSDKSVCLFTDFDSQTNVSQSKDSDVYITDKCVLDMRSMDFKSNSAVAWSNKSDFACANAFNNSIIPEDTFFPSSDVPCDVKLVEKSFETDTNLNFQNLSVIGFRILLLKVAGFNLLMTLRLWSSRAKRSGSGVKQTLNFDLLKLAGDVESNPGPSRGHMTEYKPTVRLATRDDVPRAVRTLAAAFADYPATRHTVDPDRHIERVTELQELFLTRVGLDIGKVWVADDGAAVAVWTTPESVEAGAVFAEIGPRMAELSGSRLAAQQQMEGLLAPHRPKEPAWFLATVGVSPDHQGKGLGSAVVLPGVEAAERAGVPAFLETSAPRNLPFYERLGFTVTADVEVPEGPRTWCMTRKPGA
**Q.** Which “NFAT-GFP ASSAY: Raji-CD19-KO” value [1] does the source give for B1 here?
**A.** Its value is 5+ (refer to approximately 5%, 10%, 20%, 30%, 40% and 50% GFP positive cells).

**Q.** And the “NFAT-GFP ASSAY: RS411” value [2]?
**A.** Its value is “+ (refer to approximately 5%, 10%, 20%, 30%, 40% and 50% GFP positive cells)”.

**Q.** And the “NFAT-GFP ASSAY: LNCaP” value ([3]; co-culture with LNCaP)?
**A.** The value was 5+ (refer to approximately 5%, 10%, 20%, 30%, 40% and 50% GFP positive cells).

**Q.** And the “NFAT-GFP ASSAY: Nalm6” value [4]?
**A.** The value was 5+ (refer to approximately 5%, 10%, 20%, 30%, 40% and 50% GFP positive cells).

**Q.** What about the “NFAT-GFP ASSAY: L363” value [5] of the same molecule?
**A.** The value was “+/- (refer to approximately 5%, 10%, 20%, 30%, 40% and 50% GFP positive cells)”.

B2: 22293 (protein)
chain: MALPVTALLLPLALLLHAARPACMDPDLEIRAAFLRQRNTALRTEVAELEQEVQRLENEVSQYETRYGPLGGGKGTGGGGSGGGGSGGGGSEFDIQMTQSPSSLSASVGDRVTITCKASDHINNWLAWYQQKPGQAPKLLIYGATTLETGVPSRFSGSGSGTDYTLTISSLQPEDFATYYCQQSWNTPWTFGQGTKLEIKRLEDLKNVFPPEVAVFEPSEAEISHTQKATLVCLATGFYPDHVELSWWVNGKEVHSGVCTDPQPLKEQPALNDSRYCLSSRLRVSATFWQNPRNHFRCQVQFYGLSENDEWTQDRAKPVTQIVSAEAWGRADCGFTSESYQQGVLSATILYEILLGKATLYAVLVSALVLMAMVKRKDSRGRAKRSGSGATNFSLLKQAGDVEENPGPTSATMDWIWRILFLVGAATGAHSGPEVQLVESGGGLVQAGGSLRLSCAASGRTFSMGWFRQAPGKEREFVAAITYSGGSPYYADSVKGRFTISRDNAKNTVYLQMNSLKPEDTAVYYCAANPTYGSDWNAENWGQGTQVTVSSGSGGGGSGGGGSGGGGSFEQVQLQQPGAELVKPGASVKMSCKASGYAFSSYWINWMKQKPGQGLEWIGQIYPGDGDTNYNGKFKGRATLTADTSSSTAYMQLSSLTSEDSAVYFCARSITTVVGCAMDYWGQGTSVTVSSTRIQNPDPAVYQLRDSKSSDKSVCLFTDFDSQTNVSQSKDSDVYITDKCVLDMRSMDFKSNSAVAWSNKSDFACANAFNNSIIPEDTFFPSPESSCDVKLVEKSFETDTNLNFQNLSVIGFRILLLKVAGFNLLMTLRLWSSRAKRSGSGVKQTLNFDLLKLAGDVESNPGPSRGHMTEYKPTVRLATRDDVPRAVRTLAAAFADYPATRHTVDPDRHIERVTELQELFLTRVGLDIGKVWVADDGAAVAVWTTPESVEAGAVFAEIGPRMAELSGSRLAAQQQMEGLLAPHRPKEPAWFLATVGVSPDHQGKGLGSAVVLPGVEAAERAGVPAFLETSAPRNLPFYERLGFTVTADVEVPEGPRTWCMTRKPGA
**Q.** With B2 as the molecule, how does the “NFAT-GFP ASSAY: LNCaP with PSMA-USC76-chVH-EZIP” value ([3]; LNCaP in presence of SAR adaptor PSMA-USC76-chVH-EZIP) read?
**A.** The value was “+5.5”.

**Q.** And the “NFAT-GFP ASSAY: L363 with BCMA-FHVH-74-EZIP” value ([5]; L363 in presence of SAR adaptor BCMA-FHVH-74-EZIP)?
**A.** Its value is “+3”.

B3: SEQ ID NO: 22294: RZIP domain attached directly to truncated TCR chain [hTCRb-wt-opt2-6MD] with a short GS linker, without Ig or long linker (protein)
chain: MALPVTALLLPLALLLHAARPQLQLQESGPGLVKPSETLSLTCTVSGDSISSGDYYWGWIRQPPGKGLEWIGHIYYSGVTYYNPSLKSRVTISVDTSRNQFSLKLSSVTAADTAVYYCTREDSSNWRSRGQGTLVTVSSLEGSIPEDTFFPSPESSCDVKLVEKSFETDTNLNFQNLSVIGFRILLLKVAGFNLLMTLRLWSSRAKRSGSGVKQTLNFDLLKLAGDVESNPGPTSATMDWIWRILFLVGAATGAHSEFMDPDLEIRAAFLRQRNTALRTEVAELEQEVQRLENEVSQYETRYGPLGGGKTRGSGRADCGFTSESYQQGVLSATILYEILLGKATLYAVLVSALVLMAMVKRKDSRGRAKRSGSGATNFSLLKQAGDVEENPGPSRGHMTEYKPTVRLATRDDVPRAVRTLAAAFADYPATRHTVDPDRHIERVTELQELFLTRVGLDIGKVWVADDGAAVAVWTTPESVEAGAVFAEIGPRMAELSGSRLAAQQQMEGLLAPHRPKEPAWFLATVGVSPDHQGKGLGSAVVLPGVEAAERAGVPAFLETSAPRNLPFYERLGFTVTADVEVPEGPRTWCMTRKPGA
**Q.** With B3 as the molecule, how does the “redirection to LNCaP cells” value ([3]; LNCaP (PSMA+) cells in the presence of SAR adaptor CD8SP-PSMA-USC76-chVH-EZIP (SEQ ID NO: 23118)) read?
**A.** The value was “Weaker results”.

**Q.** And the GFP induction ([5]; L363 cells (BCMA+), only in the presence of SAR adaptor BCMA-FHVH-74-EZIP (SEQ ID NO: 23119))?
**A.** The GFP induction was “Weaker results”.

B4: 10518 (protein)
chain: MALPVTALLLPLALLLHAARPEVQLVESGGGLVQPGGSLRLSCAASGYTFSDYFMSWVRQAPGKGLEWVATISNGGTYTYYPDSVKGRFTISRDNSKNTLYLQMNSLRAEDTAVYYCARFDGYIFDYWGQGTLVTVSSGGGGSGGGGSGGGGSDIQMTQSPSSLSASVGDRVTITCRASQDISNYLNWYQQKPGKAPKLLIYYTSRLHSGVPSRFSGSGSGTDFTLTISSLQPEDFATYYCQQGNTLPYTFGQGTKVEIKRTREQKLISEEDLAKPTTTPAPRPPTPAPTIASQPLSLRPEACRPAAGGAVHTRGLDFACDIYIWAPLAGTCGVLLLSLVITLYCKRGRKKLLYIFKQPFMRPVQTTQEEDGCSCRFPEEEEGGCELRVKFSRSADAPAYQQGQNQLYNELNLGRREEYDVLDKRRGRDPEMGGKPRRKNPQEGLYNELQKDKMAEAYSEIGMKGERRRGKGHDGLYQGLSTATKDTYDALHMQALPPR
modifications: Synthetic Polynucloetide
**Q.** With B4 as the molecule, how does the “tumor inhibition / protection, SKOV3 xenograft” value [6] read?
**A.** The value was “weak protection”.

B5: 22287 (protein)
chain: MALPVTALLLPLALLLHAARPACEVQLLESGGGLIQPGGSLRLSCAASGFTFSSHAMTWVRQAPGKGLEWVSAISGSGDYTHYADSVKGRFTISRDNSKNTVYLQMNSLRAEDSAVYYCAKDEDGGSLLGHRGQGTLVTVSSGTGGGGSGGGGSGGGGSEFDIQMTQSPSSLSASVGDRVTITCKASDHINNWLAWYQQKPGQAPKLLIYGATTLETGVPSRFSGSGSGTDYTLTISSLQPEDFATYYCQQSWNTPWTFGQGTKLEIKRLEGQPKANPTVTLFPPSSEELQANKATLVCLISDFYPGAVTVAWKADGSPVKAGVETTKPSKQSNNKYAASSYLSLTPEQWKSHRSYSCQVTHEGSTVEKTVAPTECSGRADCGFTSESYQQGVLSATILYEILLGKATLYAVLVSALVLMAMVKRKDSRGRAKRSGSGATNFSLLKQAGDVEENPGPTSTMDWIWRILFLVGAATGAHSLFNQEVQIPLTESYCGPCPKNWICYKNNCYQFFDESKNWYESQASCMSQNASLLKVYSKEDQDLLKLVKSAHWMGLVHIPTNGSWQWEDGSILSPNLLTIIEMQKGDCALYASSFKGYIENCSTPNTYICMQRTVSGGGGSGGGGSGGGGDLFNQEVQIPLTESYCGPCPKNWICYKNNCYQFFDESKNWYESQASCMSQNASLLKVYSKEDQDLLKLVKSAHWMGLVHIPTNGSWQWEDGSILSPNLLTIIEMQKGDCALYASSFKGYIENCSTPNTYICMQRTVGSGGGGSGGGGSGGGGSFEQVQLQQPGAELVKPGASVKMSCKASGYAFSSYWINWMKQKPGQGLEWIGQIYPGDGDTNYNGKFKGRATLTADTSSSTAYMQLSSLTSEDSAVYFCARSITTVVGCAMDYWGQGTSVTVSSTRASTKGPSVFPLAPSSKSTSGGTAALGCLVKDYFPEPVTVSWNSGALTSGVHTFPAVLQSSGLYSLSSVVTVPSSSLGTQTYICNVNHKPSNTKVDKRVEPKSCIPEDTFFPSPESSCDVKLVEKSFETDTNLNFQNLSVIGFRILLLKVAGFNLLMTLRLWSSRAKRSGSGVKQTLNFDLLKLAGDVESNPGPSRGHMTEYKPTVRLATRDDVPRAVRTLAAAFADYPATRHTVDPDRHIERVTELQELFLTRVGLDIGKVWVADDGAAVAVWTTPESVEAGAVFAEIGPRMAELSGSRLAAQQQMEGLLAPHRPKEPAWFLATVGVSPDHQGKGLGSAVVLPGVEAAERAGVPAFLETSAPRNLPFYERLGFTVTADVEVPEGPRTWCMTRKPGA
**Q.** B5 was tested. Which “NFAT-GFP ASSAY: LNCaP with PSMA-USC76-chVH-G4S-ULBP2-S3” value ([3]; LNCaP in presence of SAR adaptor PSMA-USC76-chVH-G4S-ULBP2-S3) did it give?
**A.** The value was “+ (refer to approximately 5%, 10%, 20%, 30%, 40% and 50% GFP positive cells)”.

**Q.** And the “NFAT-GFP ASSAY: Raji” value [7]?
**A.** The value was 3+ (refer to approximately 5%, 10%, 20%, 30%, 40% and 50% GFP positive cells).

**Q.** What about the “NFAT-GFP ASSAY: L363” value [5] of the same molecule?
**A.** The value was “+/- (refer to approximately 5%, 10%, 20%, 30%, 40% and 50% GFP positive cells)”.
